*: point of attachment. (PEG)2 40 kDa = branched PEG of 40 kDa linked via the Cys side-chain thiol (code C2 = Cys(PEG)2 40 kDa); Succinimide(1-Et,3-yl) = CCN1C(=O)CC(*)C1=O; Palmitoyl = CCCCCCCCCCCCCCCC(=O)*
Tests used:
Assay in all cases: cell-based or functional assay
[1] = biological target: T1, mouse NMUR1-CTG (mouse, UniProt O55040 1-428)
T1 sequence (looked up): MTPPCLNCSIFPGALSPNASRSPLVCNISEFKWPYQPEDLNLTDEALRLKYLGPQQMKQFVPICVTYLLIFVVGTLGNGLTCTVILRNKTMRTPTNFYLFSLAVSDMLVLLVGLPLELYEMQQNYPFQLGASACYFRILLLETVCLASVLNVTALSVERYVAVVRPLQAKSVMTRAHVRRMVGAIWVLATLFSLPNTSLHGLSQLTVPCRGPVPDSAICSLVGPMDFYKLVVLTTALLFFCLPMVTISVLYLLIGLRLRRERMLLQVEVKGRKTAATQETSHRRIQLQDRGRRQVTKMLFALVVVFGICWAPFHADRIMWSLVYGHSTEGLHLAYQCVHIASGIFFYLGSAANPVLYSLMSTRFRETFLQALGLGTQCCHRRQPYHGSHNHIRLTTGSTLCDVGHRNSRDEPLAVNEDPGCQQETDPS

[2] = biological target: mouse NMUR2 (mouse, UniProt Q8BZ39 1-395)
[3] = biological target: T2, mouse NMUR1-ATG (mouse, UniProt O55040 1-428)
T2 sequence (looked up): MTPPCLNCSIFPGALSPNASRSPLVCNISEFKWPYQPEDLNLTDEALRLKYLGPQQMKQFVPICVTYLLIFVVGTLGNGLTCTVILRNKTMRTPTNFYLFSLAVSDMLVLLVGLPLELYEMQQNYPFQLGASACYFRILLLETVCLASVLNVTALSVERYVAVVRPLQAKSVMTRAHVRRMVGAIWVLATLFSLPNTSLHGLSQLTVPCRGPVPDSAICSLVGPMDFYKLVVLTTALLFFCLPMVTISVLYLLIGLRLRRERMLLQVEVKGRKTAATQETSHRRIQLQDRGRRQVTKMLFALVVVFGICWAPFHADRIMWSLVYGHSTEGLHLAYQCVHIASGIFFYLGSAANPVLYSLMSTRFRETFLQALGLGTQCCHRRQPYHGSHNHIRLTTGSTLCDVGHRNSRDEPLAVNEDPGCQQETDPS

[4] = biological target: T3, rat NMUR1-ATG (rat, UniProt Q9JJI5 1-425)
T3 sequence (looked up): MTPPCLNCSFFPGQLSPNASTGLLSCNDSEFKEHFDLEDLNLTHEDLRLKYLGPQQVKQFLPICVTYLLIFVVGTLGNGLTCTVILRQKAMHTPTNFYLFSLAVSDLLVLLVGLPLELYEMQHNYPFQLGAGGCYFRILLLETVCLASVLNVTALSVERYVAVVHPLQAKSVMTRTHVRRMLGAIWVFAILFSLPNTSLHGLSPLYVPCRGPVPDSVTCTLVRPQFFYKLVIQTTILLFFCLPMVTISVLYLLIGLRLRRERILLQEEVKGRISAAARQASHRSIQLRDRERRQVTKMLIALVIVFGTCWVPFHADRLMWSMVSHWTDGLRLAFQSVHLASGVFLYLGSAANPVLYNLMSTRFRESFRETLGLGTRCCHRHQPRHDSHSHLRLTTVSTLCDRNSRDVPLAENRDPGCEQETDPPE

[5] = biological target: T4, rat NMUR1-TTG (rat, UniProt Q9JJI5 1-425)
T4 sequence (looked up): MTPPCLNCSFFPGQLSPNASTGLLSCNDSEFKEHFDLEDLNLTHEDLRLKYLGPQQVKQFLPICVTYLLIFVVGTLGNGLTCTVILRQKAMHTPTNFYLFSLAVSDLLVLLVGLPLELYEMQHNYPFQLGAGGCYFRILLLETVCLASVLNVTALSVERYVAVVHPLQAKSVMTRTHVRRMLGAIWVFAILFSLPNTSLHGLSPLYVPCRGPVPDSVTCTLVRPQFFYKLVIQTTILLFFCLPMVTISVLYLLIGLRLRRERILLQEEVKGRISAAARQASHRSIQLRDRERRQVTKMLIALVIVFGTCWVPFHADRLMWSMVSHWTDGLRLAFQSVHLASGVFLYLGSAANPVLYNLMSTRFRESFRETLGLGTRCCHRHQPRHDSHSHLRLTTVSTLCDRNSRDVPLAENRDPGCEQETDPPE

[6] = biological target: rat NMUR2 (rat, UniProt Q9ESQ4 1-395)
[7] = biological target: T5, human NMUR1 (human, UniProt Q9HB89 1-426)
T5 sequence (looked up): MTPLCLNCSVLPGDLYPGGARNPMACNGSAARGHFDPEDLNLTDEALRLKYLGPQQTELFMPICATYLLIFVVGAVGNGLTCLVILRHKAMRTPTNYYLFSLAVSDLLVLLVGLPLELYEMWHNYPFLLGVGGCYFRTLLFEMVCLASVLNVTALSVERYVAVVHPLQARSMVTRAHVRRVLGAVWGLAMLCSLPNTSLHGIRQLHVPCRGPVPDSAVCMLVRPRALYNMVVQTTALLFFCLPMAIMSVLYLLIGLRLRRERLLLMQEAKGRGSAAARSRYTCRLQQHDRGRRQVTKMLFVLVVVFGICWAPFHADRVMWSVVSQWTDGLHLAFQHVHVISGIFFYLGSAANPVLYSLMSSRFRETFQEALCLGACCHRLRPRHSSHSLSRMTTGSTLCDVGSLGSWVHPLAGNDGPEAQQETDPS

[8] = biological target: human NMUR2 (human, UniProt Q9GZQ4 1-415)
Sequence of human NMUR2 (Q9GZQ4 whole entry): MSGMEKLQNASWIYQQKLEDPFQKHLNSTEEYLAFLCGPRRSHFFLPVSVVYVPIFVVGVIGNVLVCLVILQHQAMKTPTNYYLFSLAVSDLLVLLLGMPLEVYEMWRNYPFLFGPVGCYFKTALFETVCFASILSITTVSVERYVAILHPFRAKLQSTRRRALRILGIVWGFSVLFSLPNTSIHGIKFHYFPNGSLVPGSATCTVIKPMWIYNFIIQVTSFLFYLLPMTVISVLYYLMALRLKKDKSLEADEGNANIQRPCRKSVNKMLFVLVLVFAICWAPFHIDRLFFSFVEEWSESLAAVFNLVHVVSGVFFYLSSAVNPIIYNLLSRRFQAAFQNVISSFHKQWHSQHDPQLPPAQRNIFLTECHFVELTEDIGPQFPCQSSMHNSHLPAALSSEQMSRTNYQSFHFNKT

Sequence of rat NMUR2 (Q9ESQ4 whole entry): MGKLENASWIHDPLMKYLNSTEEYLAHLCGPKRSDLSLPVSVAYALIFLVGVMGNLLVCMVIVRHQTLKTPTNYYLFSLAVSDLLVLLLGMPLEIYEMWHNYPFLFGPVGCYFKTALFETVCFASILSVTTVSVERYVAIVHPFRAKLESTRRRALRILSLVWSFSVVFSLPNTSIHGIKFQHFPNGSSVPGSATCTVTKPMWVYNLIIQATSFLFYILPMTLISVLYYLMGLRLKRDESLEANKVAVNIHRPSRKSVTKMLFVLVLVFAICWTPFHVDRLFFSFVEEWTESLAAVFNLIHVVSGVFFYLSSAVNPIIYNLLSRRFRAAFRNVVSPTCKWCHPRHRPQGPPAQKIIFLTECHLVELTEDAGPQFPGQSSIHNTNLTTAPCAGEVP
Sequence of mouse NMUR2 (Q8BZ39 whole entry): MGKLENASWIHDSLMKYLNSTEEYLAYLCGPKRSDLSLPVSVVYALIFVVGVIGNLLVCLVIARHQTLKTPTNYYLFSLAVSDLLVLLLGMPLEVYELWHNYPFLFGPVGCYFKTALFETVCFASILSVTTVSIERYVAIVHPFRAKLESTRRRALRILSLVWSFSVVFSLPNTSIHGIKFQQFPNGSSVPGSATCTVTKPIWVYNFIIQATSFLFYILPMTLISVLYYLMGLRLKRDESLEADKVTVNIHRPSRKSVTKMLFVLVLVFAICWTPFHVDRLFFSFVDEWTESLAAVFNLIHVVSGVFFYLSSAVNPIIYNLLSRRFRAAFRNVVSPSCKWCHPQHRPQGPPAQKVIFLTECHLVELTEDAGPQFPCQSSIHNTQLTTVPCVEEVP

Ac-C(PEG 20 kDa)FRVDEEFQSPFASQSRGYFLFRPRN-NH2 [NMU21]
% Activity (FLIPR) [1]: 90.8%
EC50 (FLIPR) [1]: 56.3 nM
% Activity (FLIPR) [2]: 100%
EC50 (FLIPR) [2]: 1.6 nM
% Activity (FLIPR) [3]: 100%
EC50 (FLIPR) [3]: 9.1 nM
% Activity (FLIPR) [4]: 99.9%
EC50 (FLIPR) [4]: 19.5 nM
% Activity (FLIPR) [5]: 77.5%
EC50 (FLIPR) [5]: 220 nM
% Activity (FLIPR) [6]: 99.2%
EC50 (FLIPR) [6]: 7 nM
% Activity (FLIPR) [7]: 93.2%
EC50 (FLIPR) [7]: 14.5 nM
% Activity (FLIPR) [8]: 97.9%
EC50 (FLIPR) [8]: 24.2 nM

Palmitoyl-C(Succinimide(1-Et,3-yl))FRVDEEFQSPFASQSRGYFLFRPRN-NH2 [NMU24]
% Activity (FLIPR) [1]: 56.1%
EC50 (FLIPR) [1]: 591 nM
% Activity (FLIPR) [2]: 82.4%
EC50 (FLIPR) [2]: 1000 nM
% Activity (FLIPR) [3]: 81.4%
EC50 (FLIPR) [3]: 1000 nM
% Activity (FLIPR) [4]: 80.8%
EC50 (FLIPR) [4]: 236 nM
% Activity (FLIPR) [5]: 67.7%
EC50 (FLIPR) [5]: 222 nM
% Activity (FLIPR) [6]: 52.2%
EC50 (FLIPR) [6]: 986 nM
% Activity (FLIPR) [7]: 34.4%
EC50 (FLIPR) [7]: 1000 nM
% Activity (FLIPR) [8]: 63.9%
EC50 (FLIPR) [8]: 1000 nM

Ac-C(PEG 20 kDa)C(PEG 20 kDa)FRVDEEFQSPFASQSRGYFLFRPRN-NH2 [NMU23]
% Activity (FLIPR) [1]: 50.9%
EC50 (FLIPR) [1]: 770 nM
% Activity (FLIPR) [2]: 100%
EC50 (FLIPR) [2]: 21.3 nM
% Activity (FLIPR) [3]: 100%
EC50 (FLIPR) [3]: 14 nM
% Activity (FLIPR) [4]: 76.4%
EC50 (FLIPR) [4]: 127 nM
% Activity (FLIPR) [5]: 39.8%
EC50 (FLIPR) [5]: 1000 nM
% Activity (FLIPR) [6]: 90.2%
EC50 (FLIPR) [6]: 47.4 nM
% Activity (FLIPR) [7]: 66.9%
EC50 (FLIPR) [7]: 300 nM
% Activity (FLIPR) [8]: 71.7%
EC50 (FLIPR) [8]: 1000 nM

Ac-C(Succinimide(1-Et,3-yl))C(Succinimide(1-Et,3-yl))FRVDEEFQSPFASQSRGYFLFRPRN-NH2 [NMU22]
% Activity (FLIPR) [1]: 100%
EC50 (FLIPR) [1]: 43.5 nM
% Activity (FLIPR) [2]: 100%
EC50 (FLIPR) [2]: 6.9 nM
% Activity (FLIPR) [3]: 100%
EC50 (FLIPR) [3]: 6.2 nM
% Activity (FLIPR) [4]: 100%
EC50 (FLIPR) [4]: 14 nM
% Activity (FLIPR) [5]: 96.4%
EC50 (FLIPR) [5]: 39.1 nM
% Activity (FLIPR) [6]: 98.8%
EC50 (FLIPR) [6]: 17.1 nM
% Activity (FLIPR) [7]: 95.6%
EC50 (FLIPR) [7]: 10.2 nM
% Activity (FLIPR) [8]: 105%
EC50 (FLIPR) [8]: 6.5 nM

Ac-C((PEG)2 40 kDa)FQSPFASQSRGYFLFRPRN-NH2 [NMU20]
% Activity (FLIPR) [1]: 65.4%
EC50 (FLIPR) [1]: 480 nM
% Activity (FLIPR) [2]: 100%
EC50 (FLIPR) [2]: 14.8 nM
% Activity (FLIPR) [3]: 100%
EC50 (FLIPR) [3]: 12.7 nM
% Activity (FLIPR) [4]: 100%
EC50 (FLIPR) [4]: 7.2 nM
% Activity (FLIPR) [5]: 93.8%
EC50 (FLIPR) [5]: 24.4 nM
% Activity (FLIPR) [6]: 100%
EC50 (FLIPR) [6]: 16.9 nM
% Activity (FLIPR) [7]: 100%
EC50 (FLIPR) [7]: 16.4 nM
% Activity (FLIPR) [8]: 100%
EC50 (FLIPR) [8]: 13 nM

B1: NMU19 (peptide)
peptide: Ac-C(Succinimide(1-Et,3-yl))FQSPFASQSRGYFLFRPRN-NH2
SMILES: CCN1C(=O)CC(SC[C@H](NC(C)=O)C(=O)N[C@@H](Cc2ccccc2)C(=O)N[C@@H](CCC(N)=O)C(=O)N[C@@H](CO)C(=O)N2CCC[C@H]2C(=O)N[C@@H](Cc2ccccc2)C(=O)N[C@@H](C)C(=O)N[C@@H](CO)C(=O)N[C@@H](CCC(N)=O)C(=O)N[C@@H](CO)C(=O)N[C@@H](CCCNC(=N)N)C(=O)NCC(=O)N[C@@H](Cc2ccc(O)cc2)C(=O)N[C@@H](Cc2ccccc2)C(=O)N[C@@H](CC(C)C)C(=O)N[C@@H](Cc2ccccc2)C(=O)N[C@@H](CCCNC(=N)N)C(=O)N2CCC[C@H]2C(=O)N[C@@H](CCCNC(=N)N)C(=O)N[C@@H](CC(N)=O)C(N)=O)C1=O
% Activity (FLIPR) [1]: 111%
EC50 (FLIPR) [1]: 22.5 nM
% Activity (FLIPR) [2]: 100%
EC50 (FLIPR) [2]: 5.6 nM
% Activity (FLIPR) [3]: 100%
EC50 (FLIPR) [3]: 7.9 nM
% Activity (FLIPR) [4]: 100%
EC50 (FLIPR) [4]: 6.8 nM
% Activity (FLIPR) [5]: 100%
EC50 (FLIPR) [5]: 12.8 nM
% Activity (FLIPR) [6]: 100%
EC50 (FLIPR) [6]: 8.7 nM
% Activity (FLIPR) [7]: 95.9%
EC50 (FLIPR) [7]: 38.9 nM
% Activity (FLIPR) [8]: 105%
EC50 (FLIPR) [8]: 11.5 nM
